This test deals with NLuc-GhBOP1 (Gossypium hirsutum).

For one substance, GUS staining intensity from GhPR1pro:GUS in tobacco leaves: 35S:GhTGA3 + 35S:GhBOP1 + reporter against 35S:GhTGA3 + reporter results are on record in PMC6588604.

Take CLuc-GhTGA3 (natural protein): the GUS staining intensity from GhPR1pro:GUS in tobacco leaves: 35S:GhTGA3 + 35S:GhBOP1 + reporter against 35S:GhTGA3 + reporter came to 2 fold.
